Assay results: paper PMC10371797

B1: ZC3H11A(wt)-HA [human] / PABPN1-Flag [not stated] (parent)
chain 1: MPNQGEDCYFFFYSTCTKGDSCPFRHCEAAIGNETVCTLWQEGRCFRQVCRFRHMEIDKKRSEIPCYWENQPTGCQKLNCAFHHNRGRYVDGLFLPPSKTVLPTVPESPEEEVKASQLSVQQNKLSVQSNPSPQLRSVMKVESSENVPSPTHPPVVINAADDDEDDDDQFSEEGDETKTPTLQPTPEVHNGLRVTSVRKPAVNIKQGECLNFGIKTLEEIKSKKMKEKSKKQGEGSSGVSSLLLHPEPVPGPEKENVRTVVRTVTLSTKQGEEPLVRLSLTERLGKRKFSAGGDSDPPLKRSLAQRLGKKVEAPETNIDKTPKKAQVSKSLKERLGMSADPDNEDATDKVNKVGEIHVKTLEEILLERASQKRGELQTKLKTEGPSKTDDSTSGARSSSTIRIKTFSEVLAEKKHRQQEAERQKSKKDTTCIKLKIDSEIKKTVVLPPIVASRGQSEEPAGKTKSMQEVHIKTLEEIKLEKALRVQQSSESSTSSPSQHEATPGARRLLRITKRTGMKEEKNLQEGNEVDSQSSIRTEAKEASGETTGVDITKIQVKRCETMREKHMQKQQEREKSVLTPLRGDVASCNTQVAEKPVLTAVPGITRHLTKRLPTKSSQKVEVETSGIGDSLLNVKCAAQTLEKRGKAKPKVNVKPSVVKVVSSPKLAPKRKAVEMHAAVIAAVKPLSSSSVLQEPPAKKAAVAVVPLVSEDKSVTVPEAENPRDSLVLPPTQSSSDSSPPEVSGPSSSQMSMKTRRLSSASTGKPPLSVEDDFEKLIWEISGGKLEAEIDLDPGKDEDDLLLELSEMIDS
chain 2: MAAAAAAAAAAGAAGGRGSGPGRRRHLVPGAGGEAGEGAPGGAGDYGNGLESEELEPEELLLEPEPEPEPEEEPPRPRAPPGAPGPGPGSGAPGSQEEEEEPGLVEGDPGDGAIEDPELEAIKARVREMEEEAEKLKELQNEVEKQMNMSPPPGNAGPVIMSIEEKMEADARSIYVGNVDYGATAEELEAHFHGCGSVNRVTILCDKFSGHPKGFAYIEFSDKESVRTSLALDESLFRGRQIKVIPKRTNRPGISTTDRGFPRARYRARTTNYNSSRSRFYSGFNSRPRGRVYRGRARATSWYSPY

Variants of: B1
Experiment: co-IP (PABPN1-Flag bait), Western blot quantification
Conditions: with PABPN1-Flag; three individual experiments; read off a plot

ratio to parent	Variant
0.17	chain 1 C66A
0.24	chain 1 C8A
0.57	chain 1 C37A
